The chains are these.
B1: Ankyrin-3, residues 4094 to 4171; numbered along this chain, Q12955 (parent)
chain: MAIVADHLGLSWTELARELNFSVDEINQIRVENPNSLISQSFMLLKKWVTRDGKNATTDALTSVLTKINRIDIVTLLE

± gives the uncertainty stated by the source.

This data set covers variants of B1. The data set can be described thus: abundance fitness (aPCA) (normalised: wild type 0, dead -1); higher = more abundant; growth selection in yeast, the domain comes from the species named. The following applies: Homo sapiens.
As for MAIVADHLGLSWTELARELNFSVDEINQIRVENPNSLISQSFMLLKKWVTRDGKNATTDALVSVLTKINRIDIVTLLE [T62V], the abundance fitness is -0.057 ± 0.084.

As to MAIVADHLGLSWTELARELNFSVDEINQIRVENPNSLISQSFMLLKKWVTRDGKNATTDALLSVLTKINRIDIVTLLE [T62L], the abundance fitness is -0.045 ± 0.04.

As to MAIVADHLGLSWTELARELNFSVDEINQIRVENPNSLISQSFMLLKKWVTRDGKNATTDALHSVLTKINRIDIVTLLE [T62H], the abundance fitness is -0.297 ± 0.33.

Take MAIVADHLGLSWTELARELNFSVDEINQIRVENPNSLISQSFMLLKKWVTRDGKNATTDALNSVLTKINRIDIVTLLE [T62N]: the abundance fitness is -0.44 ± 0.48.

For the variant MAIVADHLGLSWTELARELNFSVDEINQIRVENPNSLISQSFMLLKKWVTRDGKNATTDALWSVLTKINRIDIVTLLE [T62W], the abundance fitness was -0.434 ± 0.091.

For the variant MAIVADHLGLSWTELARELNFSVDEINQIRVENPNSLISQSFMLLKKWVTRDGKNATTDALESVLTKINRIDIVTLLE [T62E], the abundance fitness was -0.297 ± 0.098.

As for MAIVADHLGLSWTELARELNFSVDEINQIRVENPNSLISQSFMLLKKWVTRDGKNATTDALYSVLTKINRIDIVTLLE [T62Y], the abundance fitness is -0.12 ± 0.13.

For the variant MAIVADHLGLSWTELARELNFSVDEINQIRVENPNSLISQSFMLLKKWVTRDGKNATTDALASVLTKINRIDIVTLLE [T62A], the abundance fitness was 0.039 ± 0.069.

Consider MAIVADHLGLSWTELARELNFSVDEINQIRVENPNSLISQSFMLLKKWVTRDGKNATTDALQSVLTKINRIDIVTLLE [T62Q], for which the abundance fitness was -0.201 ± 0.15.

With MAIVADHLGLSWTELARELNFSVDEINQIRVENPNSLISQSFMLLKKWVTRDGKNATTDALRSVLTKINRIDIVTLLE [T62R], the abundance fitness was found to be 0.068 ± 0.058.

Take MAIVADHLGLSWTELARELNFSVDEINQIRVENPNSLISQSFMLLKKWVTRDGKNATTDALFSVLTKINRIDIVTLLE [T62F]: the abundance fitness was -0.175 ± 0.099.

As to MAIVADHLGLSWTELARELNFSVDEINQIRVENPNSLISQSFMLLKKWVTRDGKNATTKALTSVLTKINRIDIVTLLE [D59K], the abundance fitness is 0.052 ± 0.078.

For the variant MAIVADHLGLSWTELARELNFSVDEINQIRVENPNSLISQSFMLLKKWVTRDGKNATTCALTSVLTKINRIDIVTLLE [D59C], the abundance fitness was -0.036 ± 0.17.

Consider MAIVADHLGLSWTELARELNFSVDEINQIRVENPNSLISQSFMLLKKWVTRDGKNATTQALTSVLTKINRIDIVTLLE [D59Q], for which the abundance fitness amounted to 0.052 ± 0.11.

Consider MAIVADHLGLSWTELARELNFSVDEINQIRVENPNSLISQSFMLLKKWVTRDGKNATTMALTSVLTKINRIDIVTLLE [D59M], for which the abundance fitness was 0.022 ± 0.085.

As for MAIVADHLGLSWTELARELNFSVDEINQIRVENPNSLISQSFMLLKKWVTRDGKNATTHALTSVLTKINRIDIVTLLE [D59H], the abundance fitness is -0.058 ± 0.15.

As for MAIVADHLGLSWTELARELNFSVDEINQIRVENPNSLISQSFMLLKKWVTRDGKNATTYALTSVLTKINRIDIVTLLE [D59Y], the abundance fitness was -0.253 ± 0.15.

On to MAIVADHLGLSWTELARELNFSVDEINQIRVENPNSLISQSFMLLKKWVTRDGKNATTRALTSVLTKINRIDIVTLLE [D59R], for which the abundance fitness was -0.072 ± 0.048.

Turning to MAIVADHLGLSWTELARELNFSVDEINQIRVENPNSLISQSFMLLKKWVTRDGKNATTWALTSVLTKINRIDIVTLLE [D59W], the abundance fitness was -0.201 ± 0.062.

As for MAIVADHLGLSWTELARELNFSVDEINQIRVENPNSLISQSFMLLKKWVTRDGKNATTGALTSVLTKINRIDIVTLLE [D59G], the abundance fitness is -0.011 ± 0.056.

MAIVADHLGLSWTELARELNFSVDEINQIRVENPNSLISQSFMLLKKWVTRDGKNATTPALTSVLTKINRIDIVTLLE [D59P]: the abundance fitness was -0.058 ± 0.094.

Regarding MAIVADHLGLSWTELARELNFSVDEINQIRVENPNSLISQSFMLLKKWVTRDGKNATTVALTSVLTKINRIDIVTLLE [D59V], the abundance fitness is -0.117 ± 0.049.

Take MAIVADHLGLSWTELARELNFSVDEINQIRVENPNSLISQSFMLLKKWVTRDGKNATTSALTSVLTKINRIDIVTLLE [D59S]: the abundance fitness is -0.118 ± 0.052.

On to MAIVADHLGLSWTELARELNFSVDEINQIRVENPNSLISQSFMLLKKWVTRDGKNATTFALTSVLTKINRIDIVTLLE [D59F], for which the abundance fitness is -0.565 ± 0.36.

Take MAIVADHLGLSWTELARELNFSVDEINQIRVENPNSLISQSFMLLKKWVTRDGKNATTAALTSVLTKINRIDIVTLLE [D59A]: the abundance fitness is -0.032 ± 0.074.

Consider MAIVADHLGLSWTELARELNFSVDEINQIRVENPNSLISQSFMLLKKWVTRDGKNATTNALTSVLTKINRIDIVTLLE [D59N], for which the abundance fitness was -0.228 ± 0.15.

On to MAIVADHLGLSWTELARELNFSVDEINQIRVENPNSLISQSFMLLKKWVTRDGKNATTLALTSVLTKINRIDIVTLLE [D59L], for which the abundance fitness was -0.133 ± 0.048.

Regarding MAIVADHLGLSWTELARELNFSVDEINQIRVENPNSLISQSFMLLKKWVTRDGKNATTEALTSVLTKINRIDIVTLLE [D59E], the abundance fitness is -0.103 ± 0.069.

For the variant MAIVADHLGLSWTELARELNFSVDEINQIRVENPNSLISQSFMLLKKWVTRDGKNATTDALTAVLTKINRIDIVTLLE [S63A], the abundance fitness was -0.014 ± 0.034.

Regarding MAIVADHLGLSWTELARELNFSVDEINQIRVENPNSLISQSFMLLKKWVTRDGKNATTDALTGVLTKINRIDIVTLLE [S63G], the abundance fitness is -0.031 ± 0.053.

Take MAIVADHLGLSWTELARELNFSVDEINQIRVENPNSLISQSFMLLKKWVTRDGKNATTDALTFVLTKINRIDIVTLLE [S63F]: the abundance fitness is -0.153 ± 0.15.

Regarding MAIVADHLGLSWTELARELNFSVDEINQIRVENPNSLISQSFMLLKKWVTRDGKNATTDALTEVLTKINRIDIVTLLE [S63E], the abundance fitness was -0.075 ± 0.11.

MAIVADHLGLSWTELARELNFSVDEINQIRVENPNSLISQSFMLLKKWVTRDGKNATTDALTHVLTKINRIDIVTLLE [S63H]: the abundance fitness was -0.051 ± 0.1.

For the variant MAIVADHLGLSWTELARELNFSVDEINQIRVENPNSLISQSFMLLKKWVTRDGKNATTDALTCVLTKINRIDIVTLLE [S63C], the abundance fitness was -0.11 ± 0.087.

As to MAIVADHLGLSWTELARELNFSVDEINQIRVENPNSLISQSFMLLKKWVTRDGKNATTDALTDVLTKINRIDIVTLLE [S63D], the abundance fitness is 0.054 ± 0.12.
